Measured values from PMC5645493, “LAR-RPTP Clustering Is Modulated by Competitive Binding between Synaptic Adhesion Partners and Heparan Sulfate” (Frontiers in Molecular Neuroscience, 2017).

B1: human IL1RAPL1 Ig1-3 (domain or fragment)
chain: SADGCTDWSIDIKKYQVLVGEPVRIKCALFYGYIRTNYSLAQSAGLSLMWYKSSGPGDFEEPIAFDGSRMSKEEDSIWFRPTLLQDSGLYACVIRNSTYCMKVSISLTVGENDTGLCYNSKMKYFEKAELSKSKEISCRDIEDFLLPTREPEILWYKECRTKTWRPSIVFKRDTLLIREVREDDIGNYTCELKYGGFVVRRTTELTVTAPLTDKPPKLLYPMESKLTIQETQLGDSANLTCRAFFGYSGDVSPLIYWMKGEKFIEDLDENRVWESDIRILKEHLGEQEVSISLIVDSVEEGDLGNYSCYVENGNGRRHASVLL
modifications: glycans (NAG2-BMA-MAN) attached to N138
notes: IL-1 receptor accessory protein-like 1 (IL1RAPL1), human, Ig-like domains 1-3 of the extracellular part; In the functional row the Fc-fused form (Fc not cleaved) was used; also called IL-1 receptor accessory protein-like 1; IL1RAPL1 Ig1-3-Fc / IL1RAPL1-Fc (Fc kept, in the clustering assays only); source: High Five insect cells (baculovirus), secreted, purified (IgG Sepharose or protein A …)
B2: human PTPδ Ig1-3(+/+) (domain or fragment)
chain: ETPPRFTRTPVDQTGVSGGVASFICQATGDPRPKIVWNKKGKKVSNQRFEVIEFDDGSGSVLRIQPLRTPRDEAIYECVASNNVGEISVSTRLTVLREDQIPRGFPTIDMGPQLKVVERTRTATMLCAASGNPDPEITWFKDFLPVDTSNNNGRIKQLRSESIGGTPIRGALQIEQSEESDQGKYECVATNSAGTRYSAPANLYVRELREVRRVPPRFSIPPTNHEIMPGGSVNITCVAVGSPMPYVKWMLGAEDLTPEDDMPIGRNVLELNDVRQSANYTCVAMSTLGVIEAIAQIT
notes: receptor-type tyrosine-protein phosphatase delta (PTPδ), human, Ig-like domains 1-3, splice form with the MeA and MeB inserts (+/+); In the functional rows the Fc-fused form (Fc not cleaved) was used; also called PTPδ Ig1-3 MeA+MeB+; LAR-RPTP (PTPδ); source: High Five insect cells (baculovirus), secreted, purified (IgG Sepharose or protein A Sepharose, thrombin, Superdex 200)

How the values were obtained:
[1] = target: the molecule itself; experiment: crystal structure; PTPδ Ig1-3(+/+) mixed with IL1RAPL1 Ig1-3 at 1:1, complex isolated by gel filtration; sitting drop, 296 K, 100 mM Tris-HCl pH 7.5, 200 mM zinc acetate, 10% PEG8K; space group P3_(2)12; 3.08 Å
human IL1RAPL1 Ig1-3 = target: B1; experiment: as above; conditions: both partners purified

Binder	binding result [1]	binding result (human IL1RAPL1 Ig1-3)
B1	binds	
B2	binds	binds
